± gives the uncertainty stated by the source.
Assay: self-splicing fitness, log relative to wild type (ln ratio); higher = more splicing; Tetrahymena group I intron in knt gene, E. coli kanamycin selection, DiMSum; sequences stand for … in CUCUCU…GGAGGGAAAAGUUAUCAGGCAUGCACCUGGUAGCUAGUCUUUAAACCAAUAGAUUGCAUCGGUUUAAAAGGCAAGACCGUCAAAUUGCGGGAAAGGGGUCAACAGCCGUUCAGUACCAAGUCUCAGGGGAAACUUUGAGAUGGCCUUGCAAAGGGUAUGGUAAUAAGCUGACGGACAUGGUCCUAACCACGCAGCCAAGUCCUAAGUCAACAGAUCUUCUGUUGAUAUGGAUGCAGUUCACAGACUAAAUGUCGGUCGGGGAAGAUGUAUUCUUCUCAUAAGAUAUAGUCGGACCUCUCCUUAAUGGGAGCUAGCGGAUGAAGUGAUGCAACACUGGAGCCGCUGGGAACUAAUUUGUAUGCGAAAGUAUAUUGAUUAGUUUUGGAGUACUCGUGGUCG
In short: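 Library with all eight P1ex-region intron nucleotides randomised, intron inside the knt kanamycin-resistance gene on pET-22b(+), in E. coli BL21(DE3). Cells grew overnight at 37°C or 30°C on LB agar with or without 25 μg/mL kanamycin (plus 100 μg/mL carbenicillin, 50 μM IPTG, 0.2% rhamnose), in six replicate transformations. Pooled colonies were amplicon-sequenced on Illumina HiSeq 2500. DiMSum fitness is the error-weighted combination of wild-type-normalised replicate fold changes, kanamycin versus none.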

Row | Sequence | self-splicing fitness (ln) (30 °C) | self-splicing fitness (ln) (37 °C)
1 | UUAAAGCAAUAUUACGACUC | -0.15 ± 0.12 | -0.0274 ± 0.15
2 | UUAAAGCAAUAUUACGAGAG | -0.988 ± 0.061 | -0.259 ± 0.11
3 | UUAAAGCAAUAUUACGCCGG | -0.245 ± 0.12 | 0.421 ± 0.18
4 | UUAAAGCAAUAUUACGCGCU | -0.179 ± 0.1 | -0.107 ± 0.11
5 | UUAAAGCAAUAUUACGCGGA | -0.811 ± 0.097 | 0.458 ± 0.1
6 | UUAAAGCAAUAUUACGCGGG | -0.482 ± 0.11 | -1.29 ± 0.13
7 | UUAAAGCAAUAUUACGCGUA | -0.515 ± 0.12 | 0.118 ± 0.14
8 | UUAAAGCAAUAUUACGCUCG | 0.194 ± 0.12 | 0.654 ± 0.15
9 | UUAAAGCAAUAUUACGGCCG | 0.199 ± 0.14 | 0.0811 ± 0.16
10 | UUAAAGCAAUAUUACGGGUA | -0.431 ± 0.069 | 0.283 ± 0.08
11 | UUAAAGCAAUAUUACGGUAC | -2.58 ± 0.22 | -1.06 ± 0.22
12 | UUAAAGCAAUAUUACGUUAA | -0.426 ± 0.071 | 0.14 ± 0.091
13 | UUACAGCAAUAUUACGAAUG | -1.46 ± 0.094 | -0.991 ± 0.14
14 | UUACAGCAAUAUUACGCAAU | -1.23 ± 0.15 | -2.23 ± 0.4
15 | UUACAGCAAUAUUACGCACC | -2.69 ± 0.21 | -0.981 ± 0.23
16 | UUACAGCAAUAUUACGCACG | -1.13 ± 0.12 | 0.579 ± 0.13
17 | UUACAGCAAUAUUACGCCAU | -2.91 ± 0.25 | -2.48 ± 0.27
18 | UUACAGCAAUAUUACGCCUC | -3.31 ± 0.38 | -2.03 ± 0.38
19 | UUACAGCAAUAUUACGCGCC | -2.36 ± 0.14 | -0.896 ± 0.2
20 | UUACAGCAAUAUUACGCUAU | -3.74 ± 0.25 | -2.33 ± 0.21
21 | UUACAGCAAUAUUACGGAAC | -2.88 ± 0.26 | -1.88 ± 0.42
22 | UUACAGCAAUAUUACGGACA | -1.02 ± 0.11 | -0.885 ± 0.13
23 | UUACAGCAAUAUUACGGAUA | -2.25 ± 0.21 | -0.725 ± 0.12
24 | UUACAGCAAUAUUACGGAUC | -4.12 ± 0.34 | -2.26 ± 0.2

Row | Sequence | self-splicing fitness (ln) (30 °C) | self-splicing fitness (ln) (37 °C)
25 | UUACAGCAAUAUUACGGCCA | -1.02 ± 0.12 | 0.128 ± 0.13
26 | UUACAGCAAUAUUACGGCGC | -2.88 ± 0.18 | -0.508 ± 0.13
27 | UUACAGCAAUAUUACGUCGA | -0.899 ± 0.087 | 0.0863 ± 0.093
28 | UUACAGCAAUAUUACGUGAA | -1.16 ± 0.054 | -0.338 ± 0.066
29 | UUAGAGCAAUAUUACGACUG | -1.13 ± 0.096 | 0.345 ± 0.14
30 | UUAGAGCAAUAUUACGACUU | -1.32 ± 0.13 | -1.77 ± 0.19
31 | UUAGAGCAAUAUUACGAGCA | -2.27 ± 0.42 | -1.09 ± 0.32
32 | UUAGAGCAAUAUUACGAGUC | – | -2.53 ± 0.49
33 | UUAGAGCAAUAUUACGAUAG | -0.594 ± 0.1 | -0.147 ± 0.14
34 | UUAGAGCAAUAUUACGCAUG | -1.12 ± 0.11 | -0.298 ± 0.12
35 | UUAGAGCAAUAUUACGCGCA | -0.808 ± 0.12 | -0.112 ± 0.16
36 | UUAGAGCAAUAUUACGCUAC | -2.9 ± 0.41 | –
37 | UUAGAGCAAUAUUACGCUGU | -3.47 ± 0.36 | -1.56 ± 0.21
38 | UUAGAGCAAUAUUACGGUAC | -3.85 ± 0.26 | -2.79 ± 0.4
39 | UUAGAGCAAUAUUACGGUGU | -2.05 ± 0.35 | -2.19 ± 0.3
40 | UUAGAGCAAUAUUACGUACU | -3.2 ± 0.34 | -1.81 ± 0.31
41 | UUAGAGCAAUAUUACGUAUA | -3.64 ± 0.43 | -0.846 ± 0.27
42 | UUAGAGCAAUAUUACGUCGC | -3.05 ± 0.47 | -1.76 ± 0.37
43 | UUAGAGCAAUAUUACGUGAU | -3.95 ± 0.28 | -2.52 ± 0.22
44 | UUAGAGCAAUAUUACGUGGA | -2.18 ± 0.13 | -1.6 ± 0.12
45 | UUAGAGCAAUAUUACGUUGC | -2.58 ± 0.22 | -1.25 ± 0.33
46 | UUAUAGCAAUAUUACGAAUU | -3.24 ± 0.33 | -0.681 ± 0.25
47 | UUAUAGCAAUAUUACGACAG | -1.09 ± 0.16 | -0.548 ± 0.21
48 | UUAUAGCAAUAUUACGAGCA | -2.02 ± 0.17 | -1.49 ± 0.17
